These results are taken from US20210162061A1 (DINGFU BIOTARGET, published 2021).

The target in assay [1] is T1, human CD47 (human, UniProt Q08722 19-323).
T1 construct: whole, on cells; also called CD47 on A375 cells; CD47 on human erythrocytes (RBC)
Description: flow cytometry histogram, 20 µg/ml, anti-hIgG Fc PE; tumor cells mixed with 15-fold excess of human RBCs; RBC gate. A general note: Flow cytometry measures light scatter and fluorescence of single cells or particles in a stream.

For another assay, the target named is T2, CD47-muFc (human).
T2 construct: also called CD47-muFc fusion protein; Group 8
Nature of the assay: BLI (Octet K2), CD47-muFc immobilised on AHC biosensors, 25 C.

For a further assay, the target named is T3, CD47-EGFP (human).
T3 construct: also called cell surface human CD47; cells expressing CD47-EGFP
Nature of the assay: flow cytometry (MFI, anti-hIgG Fc PE) on cells expressing CD47-EGFP, unit taken from the axis Log10(ug/ml).

Assay [2] has as its target T1, human CD47. Nature of the assay: flow cytometry histogram, 20 µg/ml, fresh human RBCs diluted 2500 times.

T2 sequence (chain, as listed by the source limits assumed): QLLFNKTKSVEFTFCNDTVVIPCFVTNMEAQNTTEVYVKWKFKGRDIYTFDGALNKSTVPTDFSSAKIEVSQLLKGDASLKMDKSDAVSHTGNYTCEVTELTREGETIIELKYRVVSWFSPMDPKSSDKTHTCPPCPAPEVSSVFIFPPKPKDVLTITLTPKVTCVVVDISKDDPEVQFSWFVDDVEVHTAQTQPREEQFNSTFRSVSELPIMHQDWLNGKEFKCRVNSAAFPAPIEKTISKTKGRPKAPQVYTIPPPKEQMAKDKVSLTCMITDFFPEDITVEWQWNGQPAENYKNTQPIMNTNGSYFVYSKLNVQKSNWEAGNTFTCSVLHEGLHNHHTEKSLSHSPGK
Description for CD47-EGFP: The cells were then analyzed by flow cytometry (Life Technology).
Description for CD47-muFc: All experiments were performed at 25° C. under a PBS buffer containing 0.5% BSA and 0.5% Tween 20, pH 7.2. […] After the above steps, the subtracted binding interference data were applied to the calculations of binding constants using the FortéBio analysis software provided with the instrument.

B1: AB6.12 IgG1 (antibody, V domains shown)
VH: QMQLVQSGAEVKKTGSSVKVSCKASGFNIKDYYLHWVRQAPGQALEWMGWIDPDQGDTEYAQKFQDRVTITRDRSMSTAYMELSSLRSEDTAMYYCNAAYGSSSYPMDYWGQGTTVTVSS
VL: NIQMTQSPSAMSASVGDRVTITCKASQDIHRYLSWFQQKPGKVPKHLIYRANRLVSGVPSRFSGSGSGTEFTLTISSLQPEDFATYYCLQYDEFPYTFGGGTKVEIKR
notes: also called anti-CD47 monoclonal antibody AB6.12 IgG1; Group 20
As a reminder, the Kd is the constant that tells how readily two partners part at equilibrium. Read a high Kd as lower affinity. By koff is commonly meant the rate constant with which the complex falls apart. Lower therefore signals a long-lived complex. A word on the kon: it is the rate constant with which the complex forms. Read a high kon as fast association. By EC50 is commonly meant the midpoint of the concentration-response curve. A higher EC50 goes with lower potency in that assay. In the case of B1, in the assay with human CD47 [1], the binding result is listed as “binds”. In the assay with CD47-muFc, this molecule came in with a Kd of 0.198 nM, a koff of 0.000129 s⁻¹ and a kon of 651000 M⁻¹ s⁻¹. Moreover, the midpoint of the response with CD47-EGFP, the EC50, lay at 0.981 µg/mL.

B2: hu56di-CV1 (Fc fusion)
chain 1: QVQLVESGGGLVQPGGSLRLSCAASGKMSSRRCMAWFRQAPGKERERVAKLLTTSGSTYLADSVKGRFTISRDNSKNTVYLQMNSLRAEDTAVYYCAADSFEDPTCTLVTSSGAFQYWGQGTLVTVSSGAPQVQLVESGGGLVQPGGSLRLSCAASGKMSSRRCMAWFRQAPGKERERVAKLLTTSGSTYLADSVKGRFTISRDNSKNTVYLQMNSLRAEDTAVYYCAADSFEDPTCTLVTSSGAFQYWGQGTLVTVSSEPKSSDKTHTCPPCPAPELLGGPSVFLFPPKPKDTLMISRTPEVTCVVVDVSHEDPEVKFNWYVDGVEVHNAKTKPREEQYNSTYRVVSVLTVLHQDWLNGKEYKCKVSNKALPAPIEKTISKAKGQPREPQVYTLPPCRDELTKNQVSLWCLVKGFYPSDIAVEWESNGQPENNYKTTPPVLDSDGSFFLYSALTVDKSRWQQGNVFSCSVMHEALHNHYTQKSLSLSPGK
chain 2: EEELQIIQPDKSVLVAAGETATLRCTITSLFPVGPIQWFRGAGPGRVLIYNQRQGPFPRVTTVSDTTKRNNMDFSIRIGNITPADAGTYYCIKFRKGSPDDVEFKSGAGTELSVRAKPSGGGGSDKTHTCPPCPAPELLGGPSVFLFPPKPKDTLMISRTPEVTCVVVDVSHEDPEVKFNWYVDGVEVHNAKTKPREEQYNSTYRVVSVLTVLHQDWLNGKEYKCKVSNKALPAPIEKTISKAKGQPREPQVYTLPPSRDELTKNQVSLSCGVKGFYPSDIAVEWESNGQPENNYKTTPPVLDSDGSFKLASKLTVDKSRWQQGNVFSCSVMHEALHNHYTQKSLSLSPGK
notes: also called Group 14
With B2, the binding result with human CD47 [2] was “binds”.
